Source: patent publication US20240382677A1

Molecular target: recombinant human PD-1 dimer expressed with a C-terminal mouse IgG2a Fc tag (hPD-1-mFc) (human)
Test: competition ELISA, 1.5 nM hPD-1-mFc, coated hPD-L1-hFc; NBI

recombinant human PD-1 dimer expressed with a C-terminal mouse IgG2a Fc tag (hPD-1-mFc) (human), sequence (chain, as listed by the source limits assumed): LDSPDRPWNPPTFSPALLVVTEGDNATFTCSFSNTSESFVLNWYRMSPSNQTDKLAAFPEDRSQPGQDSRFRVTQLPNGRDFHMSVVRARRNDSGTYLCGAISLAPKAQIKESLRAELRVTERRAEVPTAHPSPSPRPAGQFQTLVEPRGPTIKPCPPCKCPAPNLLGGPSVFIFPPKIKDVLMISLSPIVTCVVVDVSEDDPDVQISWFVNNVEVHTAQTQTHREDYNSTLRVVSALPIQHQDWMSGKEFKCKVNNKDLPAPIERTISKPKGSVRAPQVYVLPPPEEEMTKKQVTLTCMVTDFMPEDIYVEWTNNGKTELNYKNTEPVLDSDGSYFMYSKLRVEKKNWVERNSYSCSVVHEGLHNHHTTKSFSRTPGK

Question: With Isotype control 2 (antibody) as the substance, how does the % blocking at 200 nM antibody read?
Answer: -18%
